One block for each binder: values may come before it.
Assays:
Conditions in all cases: both partners purified
[1] = target: T1, Arp2 of S. pombe Arp2/3 complex (S. pombe, UniProt Q9UUJ1 1-390); test: cryo-EM structure; ADP-BeFx state: branch junctions prepared as for the ADP state, with 2 mM BeFx (2 mM BeSO4 and 10 mM NaF) added during daughter filament formation; ADP-BeFx on Arp3, ATP on Arp2; 3.2 Å
T1 construct: Arp2 subunit of S. pombe Arp2/3 complex; Seen within the whole complex in the branch junction

[2] = target: T2, ARPC1 of S. pombe Arp2/3 complex (S. pombe, UniProt P78774 1-377); test: as above
T2 construct: ARPC1 subunit of S. pombe Arp2/3 complex; Seen within the whole complex in the branch junction
T2 sequence: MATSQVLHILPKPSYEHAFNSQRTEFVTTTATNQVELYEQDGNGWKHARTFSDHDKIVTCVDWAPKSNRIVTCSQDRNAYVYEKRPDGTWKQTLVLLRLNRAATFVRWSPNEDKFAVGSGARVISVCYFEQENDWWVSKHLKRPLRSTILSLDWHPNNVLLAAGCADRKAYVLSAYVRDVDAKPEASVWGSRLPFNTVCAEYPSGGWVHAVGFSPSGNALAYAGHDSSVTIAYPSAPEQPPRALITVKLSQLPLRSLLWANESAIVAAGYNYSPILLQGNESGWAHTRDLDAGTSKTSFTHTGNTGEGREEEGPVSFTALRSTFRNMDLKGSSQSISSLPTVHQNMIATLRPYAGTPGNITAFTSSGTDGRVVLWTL

[3] = target: T1, Arp2 of S. pombe Arp2/3 complex; test: cryo-EM structure; ADP state: branch junctions of capped rabbit actin filaments with GCN4-VCA-activated S. pombe Arp2/3 complex, aged ~90 min; ADP on actin and Arp3, ATP on Arp2; 2.7 Å

T1 sequence (Q9UUJ1 whole entry, one chain of several): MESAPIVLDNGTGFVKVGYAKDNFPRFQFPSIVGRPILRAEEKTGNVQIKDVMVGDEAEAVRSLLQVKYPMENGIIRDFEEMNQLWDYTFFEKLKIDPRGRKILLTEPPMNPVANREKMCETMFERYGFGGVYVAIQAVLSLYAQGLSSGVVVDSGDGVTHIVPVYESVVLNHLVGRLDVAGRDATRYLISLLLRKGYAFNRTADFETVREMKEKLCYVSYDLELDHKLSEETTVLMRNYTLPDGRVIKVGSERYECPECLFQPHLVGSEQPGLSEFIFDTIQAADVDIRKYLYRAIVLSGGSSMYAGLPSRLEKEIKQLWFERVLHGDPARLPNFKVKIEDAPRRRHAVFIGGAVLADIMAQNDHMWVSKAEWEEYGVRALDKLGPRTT

binding result [1]: binds
binding result [2]: binds
B1: ARPC2 of S. pombe Arp2/3 complex (natural protein)
chain: MLSLDYNNIFIYELLTERFSSENPSSIDQVVTDFDGVTFHISTPEEKTKILISLSMKCYPELVNYGTLDLLKQIYGAYVHEPEMGYNFSILIDLQQLPATDEEKEQLAMSISMLKRNVLAAPFHRAFTKQAELADLARKDPENAPMLDKQATSQELMAIHYRDEETIVLWPEHDRVTVVFSTKFREETDRIFGKVFLQEFVDARRRPAIQTAPQVLFSYRDPPLEIRDIQGIQKGDDFGFVTFVLFERHFTPQNREDCISHIQVFRNTLHFHIKASKAYMHQRMRKRVADFQKVLNRAKPDVELERKTATGRSFVRA
notes: ARPC2 subunit of S. pombe Arp2/3 complex; Seen within the whole complex in the branch junction

binding result [3]: binds
B2: ARPC3 of S. pombe Arp2/3 complex (natural protein)
chain: MPAYHSSFLSLTDVPTTGNIAMLPLKTKFRGPAYPADESQMDIIDECIGLFRANCFFRNFEIKGPADRTLIYGTLFISECLGRVNGLNYRDAERQLNSLALENFSIPGSAGFPLNALYAPPLSPQDAEIMRTYLTQFRQELAYRLLSHVYATEKDHPSKWWTCFSKRRFMNKAL
notes: ARPC3 subunit of S. pombe Arp2/3 complex; Seen within the whole complex in the branch junction

From article PMC10918085, “Cryo-EM structures reveal how phosphate release from Arp3 weakens actin filament branches formed by Arp2/3 complex” (Nature Communications, 2024)
